Laboratory results taken from US20240207421A1, “NERVE TARGETING PEPTIDES AND METHODS OF USE” (ALUME BIOSCIENCES, INC., priority 2020, published 2024).

Target: Laminin 421/521
Assay: phage display, NGS count

Row | Count | Binder
1 | 131 | CMNKIQRDC
2 | 295 | CSKHNHSRC
3 | 53 | VPVFLDQARVMK
4 | 497 | GGYDLPWANWQN
5 | 55 | CHQRQQTYC
6 | 359 | CSHHKLKQC
7 | 89 | WTKHNTPAHHLS
8 | 61 | WAFKAPQ
9 | 67 | WPVRNLL
10 | 55 | CGITQTTTC
11 | 52 | GEPLTRFPNSDS
12 | 95 | GRTIHSM
13 | 117 | WGLKLPH
14 | 69 | SGWEGKTHQGVR
15 | 54 | SDRGKTVLHGQI
16 | 95 | RLVTASMVSPSF
17 | 51 | GPKNHHQ
18 | 80 | ATSKYPNSWAQT
19 | 50 | SFRNLEKLSLWS
20 | 51 | GDLWNVP
21 | 53 | HQSLAGVPWSRH
22 | 53 | GFADVIHRKWSS
23 | 93 | HASNQRV

Row | Count | Binder
24 | 52 | CSLANPATC
25 | 101 | DGQVSDHSYVQW
26 | 55 | YTPRNQL
27 | 147 | APKVTNARPTQL
28 | 50 | KQELSDNLASHR
29 | 62 | GSLDMGNNKQPV
30 | 86 | DRLTPITWDWSR
31 | 51 | NNNAAMQNHGVR
32 | 50 | GHPWTEIDFMSS
33 | 124 | IPVGERK
34 | 115 | WVAAERR
35 | 110 | KISMNRLHANFT
36 | 117 | MTHSAHNSQKTN
37 | 55 | EYWHQRGSWFHR
38 | 51 | GSGFRNEEHSAH
39 | 75 | LQSNAADHHQGM
40 | 51 | RAQAHQV
41 | 134 | KALGYSLVGGEW
42 | 114 | WDLPTLRKTKQA
43 | 52 | KPILWNRSLNAL
44 | 54 | DDLLTAPRLGVW
45 | 309 | GKPDHRLVSLWR
46 | 121 | QGWFRHS
